Results published in patent publication US20040176301A1 (CYCLACEL, published 2004).
Like-named read-outs stand apart in the source and are kept apart here. Square brackets hold non-standard residues; d marks the D form. Ends that are not written are not given here. Phe(4-F) = N[C@@H](Cc1ccc(F)cc1)C(=O)O; hSer = N[C@@H](CCO)C(=O)O; Nle = CCCC[C@H](N)C(=O)O; Abu = CC[C@H](N)C(=O)O; Aib = CC(C)(N)C(=O)O; Sar = CNCC(=O)O

Legend:
Test in all cases: cell-based or functional assay
CDK2/cyclin A complex = CDK2/cyclin A complex (UniProt P24941 1-298; P20248 1-432)
CDK2/cyclin A [1] = biological target: T1, CDK2/cyclin A (UniProt P24941 1-298; P20248 1-432)
CDK2/cyclin A [2] = biological target: T1, CDK2/cyclin A; remark: listed apart in the source
CDK2/cyclin A [3] = biological target: T1, CDK2/cyclin A; remark: listed apart in the source
CDK4/Cyclin D1 complex = CDK4/Cyclin D1 complex (UniProt P11802 1-303; P24385 1-295)
Sequence of CDK4/Cyclin D1 complex (P11802 other isoform, or with tags, fused parts or gaps, chain 1 of 2): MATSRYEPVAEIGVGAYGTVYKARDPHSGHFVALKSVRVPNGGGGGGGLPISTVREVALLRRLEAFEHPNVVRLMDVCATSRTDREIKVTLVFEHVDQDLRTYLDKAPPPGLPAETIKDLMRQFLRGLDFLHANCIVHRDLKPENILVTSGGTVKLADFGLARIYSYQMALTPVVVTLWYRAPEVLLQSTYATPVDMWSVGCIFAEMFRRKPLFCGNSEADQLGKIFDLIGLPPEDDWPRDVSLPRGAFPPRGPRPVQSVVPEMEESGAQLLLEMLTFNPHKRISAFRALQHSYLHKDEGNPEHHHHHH
Sequence of CDK4/Cyclin D1 complex (P24385 whole entry, chain 2 of 2): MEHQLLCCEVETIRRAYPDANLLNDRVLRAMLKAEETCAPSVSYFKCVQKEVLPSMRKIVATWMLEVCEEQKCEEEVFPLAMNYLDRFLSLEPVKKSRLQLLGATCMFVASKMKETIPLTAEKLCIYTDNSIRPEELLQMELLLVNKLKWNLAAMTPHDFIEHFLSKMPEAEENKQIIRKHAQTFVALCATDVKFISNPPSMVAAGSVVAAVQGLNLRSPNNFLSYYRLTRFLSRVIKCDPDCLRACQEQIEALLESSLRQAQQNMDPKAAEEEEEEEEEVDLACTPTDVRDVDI

CDK2/Cyclin E complex = CDK2/Cyclin E complex (UniProt P24941 1-298; P24864 1-410)
CDK1/Cyclin B complex = CDK1/Cyclin B complex (UniProt P06493 1-297; P14635 1-433)
Sequence of CDK1/Cyclin B complex (P06493 other isoform, or with tags, fused parts or gaps, chain 1 of 2): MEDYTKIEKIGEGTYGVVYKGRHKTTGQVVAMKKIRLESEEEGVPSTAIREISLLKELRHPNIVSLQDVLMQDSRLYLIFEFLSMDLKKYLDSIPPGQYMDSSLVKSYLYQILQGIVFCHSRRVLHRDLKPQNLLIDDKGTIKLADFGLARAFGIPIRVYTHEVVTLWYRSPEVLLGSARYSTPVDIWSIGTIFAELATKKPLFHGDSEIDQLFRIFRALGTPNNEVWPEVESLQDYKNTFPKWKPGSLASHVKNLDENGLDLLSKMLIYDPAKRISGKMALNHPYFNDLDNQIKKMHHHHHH
Sequence of CDK1/Cyclin B complex (P14635 other isoform, or with tags, fused parts or gaps, chain 2 of 2): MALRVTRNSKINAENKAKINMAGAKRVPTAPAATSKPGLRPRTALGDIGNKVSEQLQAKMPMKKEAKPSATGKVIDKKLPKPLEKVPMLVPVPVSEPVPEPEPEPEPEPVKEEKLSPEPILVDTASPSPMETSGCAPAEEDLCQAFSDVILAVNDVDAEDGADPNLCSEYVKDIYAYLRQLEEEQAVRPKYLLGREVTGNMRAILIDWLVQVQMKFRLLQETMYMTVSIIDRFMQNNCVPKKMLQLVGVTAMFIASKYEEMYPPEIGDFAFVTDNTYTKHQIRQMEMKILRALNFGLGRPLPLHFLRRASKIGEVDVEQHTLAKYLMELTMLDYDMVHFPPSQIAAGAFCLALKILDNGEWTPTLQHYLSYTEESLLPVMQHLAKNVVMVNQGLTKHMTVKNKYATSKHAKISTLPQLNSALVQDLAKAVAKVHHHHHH

CDK2/cyclin A [4] = biological target: T1, CDK2/cyclin A; remark: listed apart in the source

Binder: XAKRRLIF (Hse (homoserine) at position 1; C-terminal amide) [H-Hse-Ala-Lys-Arg-Arg-Leu-Ile Phe-NH2]
- Relative activity, CDK2/cyclin A kinase inhibition (pRb substrate) (CDK2/cyclin A complex): 2 relative to HAKRRLIF-NH2

Binder: H-HAKRNLIF-NH2 [H-His-Ala-Lys-Arg-Asn-Leu-Ile-Phe-NH2]
- Relative activity, Kinase Inhibition (CDK2/cyclin A kinase assay, pRb substrate, [ATP] = 100 µM) (CDK2/cyclin A [1]): < 0.1 relative to H-His-Ala-Lys-Arg-Arg-Leu-Ile-Phe-NH2 (=1)

B1: H-Ala-Ala-Lys-Arg-Arg-Leu-Ala-pFPhe-NH2 (peptide)
peptide: H-AAKRRLA[Phe(4-F)]-NH2
SMILES: CC(C)C[C@H](NC(=O)[C@H](CCCNC(=N)N)NC(=O)[C@H](CCCNC(=N)N)NC(=O)[C@H](CCCCN)NC(=O)[C@H](C)NC(=O)[C@H](C)N)C(=O)N[C@@H](C)C(=O)N[C@@H](Cc1ccc(F)cc1)C(N)=O
- Relative activity, Kinase Inhibition (CDK2/cyclin A kinase assay, pRb substrate, [ATP] = 100 µM) (CDK2/cyclin A [2]): 20 relative to H-His-Ala-Lys-Arg-Arg-Leu-Ile-Phe-NH2 (=1)

Binder: H-HALRRLIF-NH2 [H-His-Ala-Leu-Arg-Arg-Leu-Ile-Phe-NH2]
- Relative activity, Kinase Inhibition (CDK2/cyclin A kinase assay, pRb substrate, [ATP] = 100 µM) (CDK2/cyclin A [3]): 0.1 relative to H-His-Ala-Lys-Arg-Arg-Leu-Ile-Phe-NH2 (=1)

B2: H-Ala-Ala-Lys-Gln-Arg-Leu-Ile-pFPhe-NH2 (peptide)
peptide: H-AAKQRLI[Phe(4-F)]-NH2
SMILES: CC[C@H](C)[C@H](NC(=O)[C@H](CC(C)C)NC(=O)[C@H](CCCNC(=N)N)NC(=O)[C@H](CCC(N)=O)NC(=O)[C@H](CCCCN)NC(=O)[C@H](C)NC(=O)[C@H](C)N)C(=O)N[C@@H](Cc1ccc(F)cc1)C(N)=O
- Relative activity, Kinase Inhibition (CDK2/cyclin A kinase assay, pRb substrate, [ATP] = 100 µM) (CDK2/cyclin A [2]): 4 relative to H-His-Ala-Lys-Arg-Arg-Leu-Ile-Phe-NH2 (=1)

Binder: H-FAKRRLIF-NH2 [H-Phe-Ala-Lys-Arg-Arg-Leu-Ile Phe-NH2]
- Relative activity, CDK2/cyclin A kinase inhibition (pRb substrate) (CDK2/cyclin A complex): 3 relative to HAKRRLIF-NH2

Binder: H-HAKRSLIF-NH2 [H-His-Ala-Lys-Arg-Ser-Leu-Ile-Phe-NH2]
- Relative activity, Kinase Inhibition (CDK2/cyclin A kinase assay, pRb substrate, [ATP] = 100 µM) (CDK2/cyclin A [1]): 0.7 relative to H-His-Ala-Lys-Arg-Arg-Leu-Ile-Phe-NH2 (=1)

Binder: H-AAKRRLIF-NH2 [H-Ala-Ala-Lys-Arg-Arg-Leu-Ile Phe-NH2]
- Relative activity, CDK2/cyclin A kinase inhibition (pRb substrate) (CDK2/cyclin A complex): 1.8 relative to HAKRRLIF-NH2

B3: H-His-Ala-Lys-Arg-Aib-Leu-Ile-Phe-NH2 (peptide)
peptide: H-HAKR[Aib]LIF-NH2
SMILES: CC[C@H](C)[C@H](NC(=O)[C@H](CC(C)C)NC(=O)C(C)(C)NC(=O)[C@H](CCCNC(=N)N)NC(=O)[C@H](CCCCN)NC(=O)[C@H](C)NC(=O)[C@@H](N)Cc1c[nH]cn1)C(=O)N[C@@H](Cc1ccccc1)C(N)=O
- Relative activity, Kinase Inhibition (CDK2/cyclin A kinase assay, pRb substrate, [ATP] = 100 µM) (CDK2/cyclin A [1]): < 0.1 relative to H-His-Ala-Lys-Arg-Arg-Leu-Ile-Phe-NH2 (=1)

Binder: H-HAKRPLIF-NH2 [H-His-Ala-Lys-Arg-Pro-Leu-Ile-Phe-NH2]
- Relative activity, Kinase Inhibition (CDK2/cyclin A kinase assay, pRb substrate, [ATP] = 100 µM) (CDK2/cyclin A [1]): < 0.1 relative to H-His-Ala-Lys-Arg-Arg-Leu-Ile-Phe-NH2 (=1)

B4: H-Ala-Ala-Abu-Arg-Ser-Leu-Ile-pFPhe-NH2 (peptide)
peptide: H-AA[Abu]RSLI[Phe(4-F)]-NH2
SMILES: CC[C@H](NC(=O)[C@H](C)NC(=O)[C@H](C)N)C(=O)N[C@@H](CCCNC(=N)N)C(=O)N[C@@H](CO)C(=O)N[C@@H](CC(C)C)C(=O)N[C@H](C(=O)N[C@@H](Cc1ccc(F)cc1)C(N)=O)[C@@H](C)CC
- Relative activity, Kinase Inhibition (CDK2/cyclin A kinase assay, pRb substrate, [ATP] = 100 µM) (CDK2/cyclin A [2]): 14 relative to H-His-Ala-Lys-Arg-Arg-Leu-Ile-Phe-NH2 (=1)

Binder: H-HARRRLIF-NH2 [H-His-Ala-Arg-Arg-Arg-Leu-Ile-Phe-NH2]
- Relative activity, Kinase Inhibition (CDK2/cyclin A kinase assay, pRb substrate, [ATP] = 100 µM) (CDK2/cyclin A [3]): 5.7 relative to H-His-Ala-Lys-Arg-Arg-Leu-Ile-Phe-NH2 (=1)

Binder: DFYHSKRRLIF-NH2 [p21 (149-159) DFYHSKRRLIF-NH2]
- % Inhibition, cyclin D1/CDK4 kinase (CDK4/Cyclin D1 complex): 70%
- IC50, cyclin D1/CDK4 kinase, GST-pRb (CDK4/Cyclin D1 complex): 13 µM
- % Inhibition, cyclin E/CDK2 kinase (CDK2/Cyclin E complex): 75%
- IC50, cyclin E/CDK2 kinase, GST-pRb (CDK2/Cyclin E complex): 2 µM
- IC50, CDK1-Cyclin B phosphorylation of GST-Rb (CDK1/Cyclin B complex): > 200 µM

Binder: H-HAARRLIF-NH2 [H-His-Ala-Ala-Arg-Arg-Leu-Ile-Phe-NH2]
- Relative activity, Kinase Inhibition (CDK2/cyclin A kinase assay, pRb substrate, [ATP] = 100 µM) (CDK2/cyclin A [3]): < 0.1 relative to H-His-Ala-Lys-Arg-Arg-Leu-Ile-Phe-NH2 (=1)

Binder: XAKRRLIF (Dab (diaminobutyric acid) at position 1; C-terminal amide) [H-Dab-Ala-Lys-Arg-Arg-Leu-Ile Phe-NH2]
- Relative activity, CDK2/cyclin A kinase inhibition (pRb substrate) (CDK2/cyclin A complex): 5 relative to HAKRRLIF-NH2

Binder: XAKRRLIF (Pya (3-pyridylalanine) at position 1; C-terminal amide) [H-Pya-Ala-Lys-Arg-Arg-Leu-Ile Phe-NH2]
- Relative activity, CDK2/cyclin A kinase inhibition (pRb substrate) (CDK2/cyclin A complex): < 0.1 relative to HAKRRLIF-NH2

B5: H-His-Ala-Abu-Arg-Arg-Leu-Ile-Phe-NH2 (peptide)
peptide: H-HA[Abu]RRLIF-NH2
SMILES: CC[C@H](NC(=O)[C@H](C)NC(=O)[C@@H](N)Cc1c[nH]cn1)C(=O)N[C@@H](CCCNC(=N)N)C(=O)N[C@@H](CCCNC(=N)N)C(=O)N[C@@H](CC(C)C)C(=O)N[C@H](C(=O)N[C@@H](Cc1ccccc1)C(N)=O)[C@@H](C)CC
- Relative activity, Kinase Inhibition (CDK2/cyclin A kinase assay, pRb substrate, [ATP] = 100 µM) (CDK2/cyclin A [3]): 0.8 relative to H-His-Ala-Lys-Arg-Arg-Leu-Ile-Phe-NH2 (=1)

Binder: XAKRRLIF (Thi (2-thienylalanine) at position 1; C-terminal amide) [H-Thi-Ala-Lys-Arg-Arg-Leu-Ile Phe-NH2]
- Relative activity, CDK2/cyclin A kinase inhibition (pRb substrate) (CDK2/cyclin A complex): 2 relative to HAKRRLIF-NH2

B6: H-His-Ala-Nle-Arg-Arg-Leu-Ile-Phe-NH2 (peptide)
peptide: H-HA[Nle]RRLIF-NH2
SMILES: CCCC[C@H](NC(=O)[C@H](C)NC(=O)[C@@H](N)Cc1c[nH]cn1)C(=O)N[C@@H](CCCNC(=N)N)C(=O)N[C@@H](CCCNC(=N)N)C(=O)N[C@@H](CC(C)C)C(=O)N[C@H](C(=O)N[C@@H](Cc1ccccc1)C(N)=O)[C@@H](C)CC
- Relative activity, Kinase Inhibition (CDK2/cyclin A kinase assay, pRb substrate, [ATP] = 100 µM) (CDK2/cyclin A [3]): 0.3 relative to H-His-Ala-Lys-Arg-Arg-Leu-Ile-Phe-NH2 (=1)

B7: H-His-Ala-Lys-Arg-Sar-Leu-Ile-Phe-NH2 (peptide)
peptide: H-HAKR[Sar]LIF-NH2
SMILES: CC[C@H](C)[C@H](NC(=O)[C@H](CC(C)C)NC(=O)CN(C)C(=O)[C@H](CCCNC(=N)N)NC(=O)[C@H](CCCCN)NC(=O)[C@H](C)NC(=O)[C@@H](N)Cc1c[nH]cn1)C(=O)N[C@@H](Cc1ccccc1)C(N)=O
- Relative activity, Kinase Inhibition (CDK2/cyclin A kinase assay, pRb substrate, [ATP] = 100 µM) (CDK2/cyclin A [1]): < 0.1 relative to H-His-Ala-Lys-Arg-Arg-Leu-Ile-Phe-NH2 (=1)

B8: H-His-Ala-Lys-Nle-Arg-Leu-Ile-Phe-NH2 (peptide)
peptide: H-HAK[Nle]RLIF-NH2
SMILES: CCCC[C@H](NC(=O)[C@H](CCCCN)NC(=O)[C@H](C)NC(=O)[C@@H](N)Cc1c[nH]cn1)C(=O)N[C@@H](CCCNC(=N)N)C(=O)N[C@@H](CC(C)C)C(=O)N[C@H](C(=O)N[C@@H](Cc1ccccc1)C(N)=O)[C@@H](C)CC
- Relative activity, Kinase Inhibition (CDK2/cyclin A kinase assay, pRb substrate, [ATP] = 100 µM) (CDK2/cyclin A [4]): < 0.1 relative to H-His-Ala-Lys-Arg-Arg-Leu-Ile-Phe-NH2 (=1)

Binder: AKRRLIX (pFPhe (p-fluorophenylalanine) at position 7; C-terminal amide (-NH2)) [H-Ala-Lys-Arg-Arg-Leu-Ile-pFPhe-NH2]
- Relative activity, Kinase Inhibition (CDK2/cyclin A kinase assay, pRb substrate, [ATP] = 100 µM) (CDK2/cyclin A [2]): 4 relative to H-His-Ala-Lys-Arg-Arg-Leu-Ile-Phe-NH2 (=1)

Binder: DFYHAKRRLIFS-NH2 [p21 (149-160)S153A DFYHAKRRLIFS-NH2]
- IC50, CDK1-Cyclin B phosphorylation of GST-Rb (CDK1/Cyclin B complex): > 200 µM
- IC50, CDK1-Cyclin B phosphorylation of Histone 1 (CDK1/Cyclin B complex): 200 µM

Binder: H-HAKRALIF-NH2 [H-His-Ala-Lys-Arg-Ala-Leu-Ile-Phe-NH2]
- Relative activity, Kinase Inhibition (CDK2/cyclin A kinase assay, pRb substrate, [ATP] = 100 µM) (CDK2/cyclin A [1]): < 0.1 relative to H-His-Ala-Lys-Arg-Arg-Leu-Ile-Phe-NH2 (=1)

Binder: H-HAKARLIF-NH2 [H-His-Ala-Lys-Ala-Arg-Leu-Ile-Phe-NH2]
- Relative activity, Kinase Inhibition (CDK2/cyclin A kinase assay, pRb substrate, [ATP] = 100 µM) (CDK2/cyclin A [4]): < 0.1 relative to H-His-Ala-Lys-Arg-Arg-Leu-Ile-Phe-NH2 (=1)

B9: H-His-Ala-Lys-Hse-Arg-Leu-Ile-Phe-NH2 (peptide)
peptide: H-HAK[hSer]RLIF-NH2
SMILES: CC[C@H](C)[C@H](NC(=O)[C@H](CC(C)C)NC(=O)[C@H](CCCNC(=N)N)NC(=O)[C@H](CCO)NC(=O)[C@H](CCCCN)NC(=O)[C@H](C)NC(=O)[C@@H](N)Cc1c[nH]cn1)C(=O)N[C@@H](Cc1ccccc1)C(N)=O
- Relative activity, Kinase Inhibition (CDK2/cyclin A kinase assay, pRb substrate, [ATP] = 100 µM) (CDK2/cyclin A [4]): < 0.1 relative to H-His-Ala-Lys-Arg-Arg-Leu-Ile-Phe-NH2 (=1)
